T1: His-FLP (FOUR LIPS) (Arabidopsis thaliana, UniProt Q94FL6 1-436)
T1 sequence: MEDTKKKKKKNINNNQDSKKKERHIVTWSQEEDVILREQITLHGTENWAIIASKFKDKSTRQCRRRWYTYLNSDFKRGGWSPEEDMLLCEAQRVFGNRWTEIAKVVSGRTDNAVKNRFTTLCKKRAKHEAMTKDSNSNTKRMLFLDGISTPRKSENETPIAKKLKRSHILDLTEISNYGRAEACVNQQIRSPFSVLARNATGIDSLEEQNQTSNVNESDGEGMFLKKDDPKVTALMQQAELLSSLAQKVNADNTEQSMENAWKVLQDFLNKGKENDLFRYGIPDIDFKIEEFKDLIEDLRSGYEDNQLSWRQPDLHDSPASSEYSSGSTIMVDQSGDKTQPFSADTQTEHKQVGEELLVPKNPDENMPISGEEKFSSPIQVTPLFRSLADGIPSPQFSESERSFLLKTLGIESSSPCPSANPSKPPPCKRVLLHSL

T2: His-MYB88 (Arabidopsis thaliana, UniProt F4IRB4 1-484)
T2 sequence: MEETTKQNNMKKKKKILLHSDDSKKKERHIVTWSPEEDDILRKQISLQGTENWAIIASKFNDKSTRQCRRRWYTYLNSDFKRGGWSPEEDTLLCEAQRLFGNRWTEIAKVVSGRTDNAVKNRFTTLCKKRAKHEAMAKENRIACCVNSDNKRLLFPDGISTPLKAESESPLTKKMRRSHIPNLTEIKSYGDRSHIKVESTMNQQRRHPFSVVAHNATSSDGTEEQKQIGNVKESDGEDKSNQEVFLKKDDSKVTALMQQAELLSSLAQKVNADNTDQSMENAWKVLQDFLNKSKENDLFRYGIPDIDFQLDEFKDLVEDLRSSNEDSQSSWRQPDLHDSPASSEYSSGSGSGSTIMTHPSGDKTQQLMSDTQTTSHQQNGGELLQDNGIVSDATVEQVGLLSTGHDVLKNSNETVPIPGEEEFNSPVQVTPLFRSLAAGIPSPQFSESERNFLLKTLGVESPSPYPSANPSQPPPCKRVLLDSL

B1: pCDKA-C+D (elements C and D) (dsDNA)
DNA 1: TTACTCTCAATTAGTCAATCCCCTTCCCTAGTCCTCCTCTCTTCAAGCTTTTCACAGAA
DNA 2: TTCTGTGAAAAGCTTGAAGAGAGGAGGACTAGGGAAGGGGATTGACTAATTGAGAGTAA
B2: pCDKA-B (element B) (dsDNA)
DNA 1: CTTGACACAAAAAAAAAAAAAGAAGAAAGAAAAAACCCTTACTCTCAATTAGTCAATCC
DNA 2: GGATTGACTAATTGAGAGTAAGGGTTTTTTCTTTCTTCTTTTTTTTTTTTTGTGTCAAG
B3: pCDKA-A (element A) (dsDNA)
DNA 1: TAATAAATAAAATTGTACCAAATTAATGCGGTTAGGTAAATTCAATTTATTGGAAATTA
DNA 2: TAATTTCCAATAAATTGAATTTACCTAACCGCATTAATTTGGTACAATTTTATTTATTA

Target: T1, His-FLP (FOUR LIPS)
Assay: EMSA; EMSA: 1x LightShift binding buffer, 2.5% glycerol, 50 mM KCl, 5 mM MgCl2, 0.05% NP-40, 10 mM EDTA, room temperature 20 min; pH not stated
Conditions: protein: recombinant; tags: His (pET-28a); label: 3' biotin; blunt

Binding result, binds:
B1
B2
B3

Target: T2, His-MYB88
Assay: as above
Conditions: protein: recombinant; tags: His (pET-28a); label: 3' biotin; blunt

Binding result, binds:
B1
B2
B3

— article PMC4036514, “Requirement for A-type cyclin-dependent kinase and cyclins for the terminal division in the stomatal lineage of Arabidopsis”
